The test system of the data set is DNA gyrase. As to the kind of experiment: single-molecule T7 transcription elongation rate titrated with gyrase. Particulars: multiple biotin (topologically constrained); not given in the held text.

The Kd is the constant that tells how readily two partners part at equilibrium. A high value points to a looser complex. “nuoB-N template with multiple biotins (~12 kb)” returned a Kd of 0.1 µM.

Source of the values: PMC4105854.
